Measured values reported in US20100112057A1 (published 2010).

Legend:
[1] = molecular target: the molecule itself; assay: circular dichroism in PBS; concentration dependence of MRE at 222 nm fitted for the Kd of coiled-coil dimerization (unfolding/dissociation of the dimer)
[2] = molecular target: T1, streptavidin (streptavidin-coated SA chip) (UniProt P22629 37-163, limits assumed); assay: SPR, Biacore 3000, streptavidin-coated (SA) chip
T1 construct: Surface protein of the commercial SPR chip
T1 sequence (P22629 37-163 limits assumed): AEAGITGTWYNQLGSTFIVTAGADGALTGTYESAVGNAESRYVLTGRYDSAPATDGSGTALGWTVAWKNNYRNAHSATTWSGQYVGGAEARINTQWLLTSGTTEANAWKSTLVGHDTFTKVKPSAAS

B1: PF4ZIP (peptide)
peptide: CGGRMKQLEDKVKKLLKKNYHLENEVARLKKLVG
notes: Free peptide made by Fmoc solid phase synthesis on Rink Amide MBHA resin; The measurement is the self-association of two such chains into a coiled-coil dimer; also called PF4ZIP peptide
[1]
  Kd: 3.48 µM
[2]
  binding result: no binding
